Experimental data published in the supplement of paper PMC6379048.
pKd: −log10 of the molar value.

Legend:
Assay in all cases: Kd (EC50 corrected by depletion factor)
RBM14 = target: T1, RBM14 (UniProt Q96PK6)
T1 sequence: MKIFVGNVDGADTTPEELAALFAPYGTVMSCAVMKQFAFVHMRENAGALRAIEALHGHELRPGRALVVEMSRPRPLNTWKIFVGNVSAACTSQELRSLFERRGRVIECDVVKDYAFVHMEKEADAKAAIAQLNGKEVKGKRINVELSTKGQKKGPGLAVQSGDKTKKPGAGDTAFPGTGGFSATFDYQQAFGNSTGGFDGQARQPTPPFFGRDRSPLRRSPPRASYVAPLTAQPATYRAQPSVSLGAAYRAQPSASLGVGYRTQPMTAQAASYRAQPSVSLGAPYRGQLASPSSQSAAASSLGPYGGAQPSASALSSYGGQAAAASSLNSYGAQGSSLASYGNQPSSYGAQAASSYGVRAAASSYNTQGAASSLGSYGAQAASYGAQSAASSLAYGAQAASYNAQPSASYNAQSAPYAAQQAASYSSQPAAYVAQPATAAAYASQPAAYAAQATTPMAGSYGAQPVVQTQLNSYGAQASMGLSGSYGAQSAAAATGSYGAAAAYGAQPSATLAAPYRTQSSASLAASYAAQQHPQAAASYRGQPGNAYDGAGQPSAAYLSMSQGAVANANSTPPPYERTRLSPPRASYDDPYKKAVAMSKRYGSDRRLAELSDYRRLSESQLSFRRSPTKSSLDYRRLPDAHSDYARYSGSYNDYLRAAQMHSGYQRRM
Summary of the method: (§1)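 HEK293-FT lysate (2.5 mg protein/well) was pre-incubated 1 h at 4°C with free RNA oligos (0 nM to 30 μM), then 30 min at 4°C with the same 5′-amino-C6 oligos coupled to NHS-Sepharose beads. Bound proteins were quantified by label-free LC-MS/MS in three biological replicates and two independent experiments, and normalised to the water control. EC50 came from a four-parameter log-logistic fit; Kd is EC50 times a protein-dependent depletion factor.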

MRPS18A = MRPS18A (UniProt Q9NVS2)
Summary of the method: as §1

TRIM56 = target: T2, TRIM56 (UniProt Q9BRZ2)
T2 sequence: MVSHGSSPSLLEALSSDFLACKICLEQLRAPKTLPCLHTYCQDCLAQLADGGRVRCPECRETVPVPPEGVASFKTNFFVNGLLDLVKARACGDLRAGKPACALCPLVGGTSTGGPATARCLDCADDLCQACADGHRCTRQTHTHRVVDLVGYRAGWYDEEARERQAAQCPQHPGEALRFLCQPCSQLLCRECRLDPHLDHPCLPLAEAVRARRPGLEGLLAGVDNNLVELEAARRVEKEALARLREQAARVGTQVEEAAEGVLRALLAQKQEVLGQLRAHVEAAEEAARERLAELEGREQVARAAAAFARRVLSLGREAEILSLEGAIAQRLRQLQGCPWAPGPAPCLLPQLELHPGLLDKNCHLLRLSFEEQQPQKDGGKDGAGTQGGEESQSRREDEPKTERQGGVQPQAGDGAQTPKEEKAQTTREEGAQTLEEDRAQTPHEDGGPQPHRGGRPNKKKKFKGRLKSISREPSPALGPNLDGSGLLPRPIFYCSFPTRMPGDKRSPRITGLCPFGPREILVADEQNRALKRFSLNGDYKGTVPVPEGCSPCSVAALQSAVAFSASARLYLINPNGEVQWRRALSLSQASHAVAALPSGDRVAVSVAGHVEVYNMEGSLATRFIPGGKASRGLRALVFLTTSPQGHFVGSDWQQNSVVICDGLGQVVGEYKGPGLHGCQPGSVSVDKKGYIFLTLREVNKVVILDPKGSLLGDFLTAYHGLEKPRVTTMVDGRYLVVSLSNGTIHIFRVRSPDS
Summary of the method: as §1

CWF19L1 = target: T3, CWF19L1 (UniProt Q69YN2)
T3 sequence: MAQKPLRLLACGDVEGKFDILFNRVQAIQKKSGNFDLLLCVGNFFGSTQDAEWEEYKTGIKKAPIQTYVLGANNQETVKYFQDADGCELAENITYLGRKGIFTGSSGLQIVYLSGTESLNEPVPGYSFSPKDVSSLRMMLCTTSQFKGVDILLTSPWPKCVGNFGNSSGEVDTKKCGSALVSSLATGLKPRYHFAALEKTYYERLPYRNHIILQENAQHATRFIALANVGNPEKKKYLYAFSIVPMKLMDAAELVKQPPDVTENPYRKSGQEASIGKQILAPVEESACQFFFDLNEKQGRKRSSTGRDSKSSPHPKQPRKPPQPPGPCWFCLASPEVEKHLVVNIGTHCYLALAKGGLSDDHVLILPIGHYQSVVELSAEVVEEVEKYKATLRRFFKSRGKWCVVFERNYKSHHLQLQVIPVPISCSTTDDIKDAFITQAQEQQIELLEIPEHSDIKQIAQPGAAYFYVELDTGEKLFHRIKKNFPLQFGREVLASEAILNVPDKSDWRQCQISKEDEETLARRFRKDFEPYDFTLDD
Summary of the method: as §1

MEX3D = target: T4, MEX3D (UniProt Q86XN8)
T4 sequence: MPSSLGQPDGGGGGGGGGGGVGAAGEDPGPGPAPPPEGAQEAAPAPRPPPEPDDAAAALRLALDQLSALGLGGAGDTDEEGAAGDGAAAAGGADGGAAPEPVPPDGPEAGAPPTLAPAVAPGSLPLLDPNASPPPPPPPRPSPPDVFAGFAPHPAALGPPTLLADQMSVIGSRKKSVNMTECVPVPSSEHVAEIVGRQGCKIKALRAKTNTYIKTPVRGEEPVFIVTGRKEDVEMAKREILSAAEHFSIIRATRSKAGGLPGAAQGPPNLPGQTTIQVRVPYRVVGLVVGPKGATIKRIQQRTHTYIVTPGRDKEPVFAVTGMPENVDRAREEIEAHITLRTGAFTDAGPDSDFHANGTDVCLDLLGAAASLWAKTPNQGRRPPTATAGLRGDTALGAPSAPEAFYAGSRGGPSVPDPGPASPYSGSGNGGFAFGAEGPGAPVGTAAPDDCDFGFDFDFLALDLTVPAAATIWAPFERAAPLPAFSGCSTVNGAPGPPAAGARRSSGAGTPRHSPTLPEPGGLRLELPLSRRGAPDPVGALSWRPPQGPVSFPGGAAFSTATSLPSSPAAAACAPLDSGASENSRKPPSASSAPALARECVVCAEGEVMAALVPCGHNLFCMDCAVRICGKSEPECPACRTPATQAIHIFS
Summary of the method: as §1

**Q.** AAUAAA was tested. Which pKd (RBM14) did it give?
**A.** 6.22

**Q.** With CUGUCCU as the sequence, how does the pKd (MRPS18A) read?
**A.** 7.62

**Q.** UAUUUAU was tested. Which pKd (TRIM56) did it give?
**A.** 5.54

**Q.** What about the pKd (CWF19L1) of the same sequence?
**A.** 5.71

**Q.** And the pKd (MEX3D)?
**A.** 6.33
